Test results published in patent US20070244048A1 (published 2007).
Where two headings read alike, the source gives them in different places. No end group written: not given here.

What was measured:
human NMUR1 [1] = molecular target: T1, human NMUR1 (human, UniProt Q9HB89 1-426); test: cell-based or functional assay
T1 sequence (looked up): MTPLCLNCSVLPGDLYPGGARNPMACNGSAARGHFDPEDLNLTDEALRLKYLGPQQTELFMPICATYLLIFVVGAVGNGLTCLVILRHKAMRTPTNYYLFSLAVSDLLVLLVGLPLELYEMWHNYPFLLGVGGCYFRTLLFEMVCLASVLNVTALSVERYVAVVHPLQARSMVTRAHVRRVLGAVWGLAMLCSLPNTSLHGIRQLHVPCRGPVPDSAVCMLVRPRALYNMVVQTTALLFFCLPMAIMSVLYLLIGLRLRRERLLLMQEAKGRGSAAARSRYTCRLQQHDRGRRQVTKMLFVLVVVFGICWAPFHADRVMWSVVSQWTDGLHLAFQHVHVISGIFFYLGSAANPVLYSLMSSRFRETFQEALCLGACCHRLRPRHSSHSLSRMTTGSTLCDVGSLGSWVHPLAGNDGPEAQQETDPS

human NMUR2 [2] = molecular target: T2, human NMUR2 (human, UniProt Q9GZQ4 1-415); test: cell-based or functional assay
T2 sequence (Q9GZQ4 whole entry): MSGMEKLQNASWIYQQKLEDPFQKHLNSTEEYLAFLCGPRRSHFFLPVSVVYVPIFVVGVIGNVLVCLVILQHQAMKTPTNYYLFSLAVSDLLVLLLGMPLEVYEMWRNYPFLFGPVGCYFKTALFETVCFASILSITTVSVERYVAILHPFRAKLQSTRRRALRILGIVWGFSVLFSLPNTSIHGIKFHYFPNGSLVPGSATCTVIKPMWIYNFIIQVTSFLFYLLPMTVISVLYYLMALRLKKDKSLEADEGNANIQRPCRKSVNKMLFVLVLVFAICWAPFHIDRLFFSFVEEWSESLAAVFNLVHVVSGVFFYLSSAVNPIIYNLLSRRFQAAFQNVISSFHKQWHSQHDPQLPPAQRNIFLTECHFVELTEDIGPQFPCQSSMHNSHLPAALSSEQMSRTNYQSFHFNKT

mouse NMUR1-ATG [3] = molecular target: T3, mouse NMUR1-ATG (mouse, UniProt O55040 1-428); test: cell-based or functional assay
T3 sequence (looked up): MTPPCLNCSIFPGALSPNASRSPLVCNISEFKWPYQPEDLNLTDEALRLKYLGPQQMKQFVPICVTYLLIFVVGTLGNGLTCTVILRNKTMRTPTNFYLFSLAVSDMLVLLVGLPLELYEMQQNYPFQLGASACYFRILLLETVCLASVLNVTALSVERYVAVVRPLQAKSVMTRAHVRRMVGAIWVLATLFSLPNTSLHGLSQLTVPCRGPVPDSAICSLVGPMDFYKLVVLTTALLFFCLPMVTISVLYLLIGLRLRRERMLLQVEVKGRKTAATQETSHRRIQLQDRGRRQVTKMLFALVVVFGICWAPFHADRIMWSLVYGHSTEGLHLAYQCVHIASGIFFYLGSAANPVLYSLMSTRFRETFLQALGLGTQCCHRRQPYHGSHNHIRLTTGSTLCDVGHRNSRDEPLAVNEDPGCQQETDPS

mouse NMUR1-CTG [4] = molecular target: T4, mouse NMUR1-CTG (mouse, UniProt O55040 1-428); test: cell-based or functional assay
T4 sequence (looked up): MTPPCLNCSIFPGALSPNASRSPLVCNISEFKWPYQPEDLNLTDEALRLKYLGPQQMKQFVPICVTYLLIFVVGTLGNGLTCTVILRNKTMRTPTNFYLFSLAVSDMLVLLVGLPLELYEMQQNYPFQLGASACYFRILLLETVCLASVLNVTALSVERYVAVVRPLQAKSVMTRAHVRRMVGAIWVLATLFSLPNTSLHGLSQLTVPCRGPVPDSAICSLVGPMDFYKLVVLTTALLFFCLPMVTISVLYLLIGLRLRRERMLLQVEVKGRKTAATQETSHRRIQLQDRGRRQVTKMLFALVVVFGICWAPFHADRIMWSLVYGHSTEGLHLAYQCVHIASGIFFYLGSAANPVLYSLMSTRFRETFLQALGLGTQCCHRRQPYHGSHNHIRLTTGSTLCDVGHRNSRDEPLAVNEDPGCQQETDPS

rat NMUR1-TTG [5] = molecular target: T5, rat NMUR1-TTG (rat, UniProt Q9JJI5 1-425); test: cell-based or functional assay
T5 sequence (looked up): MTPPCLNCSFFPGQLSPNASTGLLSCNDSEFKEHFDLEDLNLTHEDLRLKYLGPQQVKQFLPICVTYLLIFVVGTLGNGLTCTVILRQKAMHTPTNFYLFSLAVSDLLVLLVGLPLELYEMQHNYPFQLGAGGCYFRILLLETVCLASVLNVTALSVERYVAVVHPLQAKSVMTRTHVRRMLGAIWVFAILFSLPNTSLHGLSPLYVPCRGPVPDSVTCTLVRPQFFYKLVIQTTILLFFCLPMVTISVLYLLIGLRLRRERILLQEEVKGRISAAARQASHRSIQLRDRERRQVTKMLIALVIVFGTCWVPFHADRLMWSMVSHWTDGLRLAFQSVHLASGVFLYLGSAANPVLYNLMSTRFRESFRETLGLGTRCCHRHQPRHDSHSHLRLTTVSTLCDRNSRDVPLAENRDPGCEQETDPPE

rat NMUR2 [6] = molecular target: T6, rat NMUR2 (rat, UniProt Q9ESQ4 1-395); test: cell-based or functional assay
T6 sequence (Q9ESQ4 whole entry): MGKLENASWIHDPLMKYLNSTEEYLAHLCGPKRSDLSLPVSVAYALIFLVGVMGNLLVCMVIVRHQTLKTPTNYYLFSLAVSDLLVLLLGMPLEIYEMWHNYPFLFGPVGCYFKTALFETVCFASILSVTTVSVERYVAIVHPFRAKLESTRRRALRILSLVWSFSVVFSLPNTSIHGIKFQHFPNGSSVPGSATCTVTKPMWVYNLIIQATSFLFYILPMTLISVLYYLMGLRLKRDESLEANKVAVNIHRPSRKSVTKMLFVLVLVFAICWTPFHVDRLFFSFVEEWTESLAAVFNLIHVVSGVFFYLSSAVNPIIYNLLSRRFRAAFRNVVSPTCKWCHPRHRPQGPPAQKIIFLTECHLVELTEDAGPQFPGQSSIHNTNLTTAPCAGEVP

human NMUR1 [7] = molecular target: T1, human NMUR1; test: cell-based or functional assay; remark: listed apart in the source
human NMUR2 [8] = molecular target: T2, human NMUR2; test: cell-based or functional assay; remark: listed apart in the source
mouse NMUR1-ATG [9] = molecular target: T3, mouse NMUR1-ATG; test: cell-based or functional assay; remark: listed apart in the source
mouse NMUR1-CTG [10] = molecular target: T4, mouse NMUR1-CTG; test: cell-based or functional assay; remark: listed apart in the source
mouse NMUR2 = mouse NMUR2 (mouse, UniProt Q8BZ39 1-395); test: cell-based or functional assay
mouse NMUR2, sequence (Q8BZ39 whole entry): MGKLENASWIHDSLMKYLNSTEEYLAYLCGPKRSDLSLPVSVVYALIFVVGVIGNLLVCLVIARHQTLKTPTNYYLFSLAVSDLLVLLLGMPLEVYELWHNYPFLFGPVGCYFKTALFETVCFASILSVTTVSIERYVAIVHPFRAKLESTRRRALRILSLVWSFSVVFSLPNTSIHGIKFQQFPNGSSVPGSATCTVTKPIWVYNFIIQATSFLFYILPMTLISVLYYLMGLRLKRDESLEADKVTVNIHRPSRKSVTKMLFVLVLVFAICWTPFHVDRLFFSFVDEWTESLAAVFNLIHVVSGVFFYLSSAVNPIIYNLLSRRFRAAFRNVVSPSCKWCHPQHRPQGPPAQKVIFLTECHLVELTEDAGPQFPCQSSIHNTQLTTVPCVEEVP

rat NMUR1-ATG = molecular target: T7, rat NMUR1-ATG (rat, UniProt Q9JJI5 1-425); test: cell-based or functional assay
T7 sequence (looked up): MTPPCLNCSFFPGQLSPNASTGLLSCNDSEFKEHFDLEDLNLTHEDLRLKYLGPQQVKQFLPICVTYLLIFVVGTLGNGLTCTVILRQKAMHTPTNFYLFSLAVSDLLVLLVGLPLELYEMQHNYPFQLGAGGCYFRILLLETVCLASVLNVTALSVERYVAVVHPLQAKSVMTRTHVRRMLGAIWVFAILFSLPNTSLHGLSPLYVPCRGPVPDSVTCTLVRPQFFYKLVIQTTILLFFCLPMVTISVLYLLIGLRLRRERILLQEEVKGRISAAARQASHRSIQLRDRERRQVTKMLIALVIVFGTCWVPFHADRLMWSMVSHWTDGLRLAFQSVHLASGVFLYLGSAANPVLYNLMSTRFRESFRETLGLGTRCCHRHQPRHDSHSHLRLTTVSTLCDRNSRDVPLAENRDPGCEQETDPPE

rat NMUR1-TTG [11] = molecular target: T5, rat NMUR1-TTG; test: cell-based or functional assay; remark: listed apart in the source
rat NMUR2 [12] = molecular target: T6, rat NMUR2; test: cell-based or functional assay; remark: listed apart in the source
human NMUR1 [13] = molecular target: T1, human NMUR1; test: 125I-hNMU-25 displacement, HEK cell membranes
Method in brief: (§1)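 HEK cell membranes (2-5 μg) incubated with […] ¹²⁵I-hNMU-25 and peptides for 80 min at room temperature in TrisCl pH 7.4 buffer with MgCl₂, EDTA, bacitracin and phosphoramidon. Bound ligand collected by filtration and scintillation counting; nonspecific binding with 1 μM hNMU-25. IC₅₀ from curve fitting.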

human NMUR2 [14] = molecular target: T2, human NMUR2; test: 125I-hNMU-25 displacement, HEK cell membranes
Method in brief: as §1

FRVDEEFQSPFASQSRGYFLFRPRN-NH2 (also called hNMU-25; native hNMU) [human NMU-25]
IC50 (nM), functional (human NMUR1 [1]): 0.2 nM
IC50 (nM), functional (human NMUR2 [2]): 0.8 nM
IC50 (nM), functional (mouse NMUR1-ATG [3]): 0.9 nM
IC50 (nM), functional (mouse NMUR1-CTG [4]): 2.9 nM
IC50 (nM), functional (rat NMUR1-TTG [5]): 1 nM
IC50 (nM), functional (rat NMUR2 [6]): 1.6 nM
IC50 (nM), functional (human NMUR1 [7]): 0.2 nM
IC50 (nM), functional (human NMUR2 [8]): 0.8 nM
IC50 (nM), functional (mouse NMUR1-ATG [9]): 0.9 nM
IC50 (nM), functional (mouse NMUR1-CTG [10]): 2.9 nM
IC50 (nM), functional (mouse NMUR2): 0.2 nM
IC50 (nM), functional (rat NMUR1-ATG): 1.3 nM
IC50 (nM), functional (rat NMUR1-TTG [11]): 1 nM
IC50 (nM), functional (rat NMUR2 [12]): 1.6 nM
% activity (binding) (human NMUR1 [13]): 100%
IC50 (human NMUR1 [13]): 0.47 nM
% activity (binding) (human NMUR2 [14]): 100%
IC50 (human NMUR2 [14]): 0.19 nM
